*1 amine or outer side, *2 acyl side, *3 side chain or, on linkers, in order; H or OH if unused. Bridges are numbered along the chain shown (N, C = ends). Primed or numbered codes have the meaning given here. Where no end group is shown, it is not given here. [ ]: non-standard residue; d: D form. The star is where a group is joined. Ttds = 1,13-diamino-4,7,10-trioxatridecan-succinamic acid, NCCCOCCOCCOCCCNC(=O)CCC(=O)*; DOTA(Lu) = O=C1CN2CCN3CCN(CC(=O)*)CCN(CC2)CC(=O)[O][Lu]([O]1)[O]C(=O)C3; NH(1-deoxy-D-glucityl) = OC[C@@H](O)[C@@H](O)[C@H](O)[C@@H](O)CN*; (dE)(AGLU) = D-glutamic acid bearing 1-amino-1-deoxy-D-glucitol; APAc″ = 4-amino-1-carboxymethylpiperidine, NC1CCN(CC(=O)*)CC1; dE(AGLU) = D-glutamic acid bearing 1-amino-1-deoxy-D-glucitol; Pro(trans-4-NH2) = O=C([C@@H]1C[C@@H](N[*:3])CN1[*:1])[*:2]; DOTA = O=C(O)CN1CCN(CC(=O)O)CCN(CC(=O)*)CCN(CC(=O)O)CC1; 2Lut = 2,6-lutidylidene bridge between two thiols; N(CH2CH2CO)Gly = O=C(CN(CCC(=O)[*:3])[*:1])[*:2]; Trp(5-Br) = N[C@@H](Cc1c[nH]c2ccc(Br)cc12)C(=O)O; Trp(5-Cl) = N[C@@H](Cc1c[nH]c2ccc(Cl)cc12)C(=O)O; Pyridine(2,6-diCH2) = c1cc(C[*:1])nc(C[*:2])c1; Cysol = L-cysteinol, OC[C@H](CS[*:3])N[*:1]; Pro(trans-4-F) = O=C(O)[C@@H]1C[C@@H](F)CN1; APAc = 4-amino-1-carboxymethylpiperidine; mXylylene = c1cc(C[*:1])cc(C[*:2])c1; LuDOTA = DOTA Lutetium(III) complex; Glutaryl = O=C(CCCC(=O)[*:2])[*:1]; AGLU = 1-amino-1-deoxy-D-glucitol; Hyp = O=C(O)[C@@H]1C[C@@H](O)CN1; Cysteamide = C(CS[*:3])N[*:1]; Suc = O=C(CCC(=O)[*:2])[*:1]; hCys = N[C@@H](CCS)C(=O)O; hSer = N[C@@H](CCO)C(=O)O; Api = NC1(C(=O)O)CCNCC1; Nphe′ = N-phenylalanine; Thp = NC1(C(=O)O)CCOCC1; Aib = CC(C)(N)C(=O)O; Nlys = NCCCCNCC(=O)O; Nleu′ = N-leucine; Sar = CNCC(=O)O
B1: Ac-Hse-Trp-5Clw-Hyp-Glu-leu-[Cys(2Lut)-Thp-Leu-Ile-Cys]-NH2 (peptide)
peptide: Ac-[hSer]W[Trp(5-Cl)][Hyp]E[dL]C[Thp]LIC-NH2
modifications: linker 7-11 via Pyridine(2,6-diCH2)
SMILES: CC[C@H](C)[C@@H]1NC(=O)[C@H](CC(C)C)NC(=O)C2(CCOCC2)NC(=O)[C@@H](NC(=O)[C@@H](CC(C)C)NC(=O)[C@H](CCC(=O)O)NC(=O)[C@@H]2C[C@@H](O)CN2C(=O)[C@H](Cc2c[nH]c3ccc(Cl)cc23)NC(=O)[C@H](Cc2c[nH]c3ccccc23)NC(=O)[C@H](CCO)NC(C)=O)CSCc2cccc(n2)CSC[C@@H](C(N)=O)NC1=O
B2: HO-Succinyl-Trp-5Clw-Pro-Glu-leu-[Cys(3MeBn)-Thp-Leu-Ile-Cys]-NH2 (peptide)
peptide: W[Trp(5-Cl)]PE[dL]C[Thp]LIC-NH2
modifications: linker 6-10 via mXylylene; not fully specified (N-terminus); printed as HO-Succinyl-Trp-5Clw-Pro-Glu-leu-[Cys(3MeBn)-Thp-Leu-Ile-Cys]-NH2
B3: HO-Succinyl-Trp-5Clw-Pro-Glu-leu-[Cys(3MeBn)-Aib-Leu-Ile-Cys]-NH2 (peptide)
peptide: W[Trp(5-Cl)]PE[dL]C[Aib]LIC-NH2
modifications: linker 6-10 via mXylylene; not fully specified (N-terminus); printed as HO-Succinyl-Trp-5Clw-Pro-Glu-leu-[Cys(3MeBn)-Aib-Leu-Ile-Cys]-NH2
B4: Ac-Glu-Trp-5Clw-Hyp-Glu-leu-[Cys(2Lut)-Thp-Leu-Ile-Cys]-NH2 (peptide)
peptide: Ac-EW[Trp(5-Cl)][Hyp]E[dL]C[Thp]LIC-NH2
modifications: linker 7-11 via Pyridine(2,6-diCH2)
SMILES: CC[C@H](C)[C@@H]1NC(=O)[C@H](CC(C)C)NC(=O)C2(CCOCC2)NC(=O)[C@@H](NC(=O)[C@@H](CC(C)C)NC(=O)[C@H](CCC(=O)O)NC(=O)[C@@H]2C[C@@H](O)CN2C(=O)[C@H](Cc2c[nH]c3ccc(Cl)cc23)NC(=O)[C@H](Cc2c[nH]c3ccccc23)NC(=O)[C@H](CCC(=O)O)NC(C)=O)CSCc2cccc(n2)CSC[C@@H](C(N)=O)NC1=O
B5: Ac-Asn-Trp-5Clw-Hyp-Glu-leu-[Cys(2Lut)-Thp-Leu-Ile-Cys]-NH2 (peptide)
peptide: Ac-NW[Trp(5-Cl)][Hyp]E[dL]C[Thp]LIC-NH2
modifications: linker 7-11 via Pyridine(2,6-diCH2)
SMILES: CC[C@H](C)[C@@H]1NC(=O)[C@H](CC(C)C)NC(=O)C2(CCOCC2)NC(=O)[C@@H](NC(=O)[C@@H](CC(C)C)NC(=O)[C@H](CCC(=O)O)NC(=O)[C@@H]2C[C@@H](O)CN2C(=O)[C@H](Cc2c[nH]c3ccc(Cl)cc23)NC(=O)[C@H](Cc2c[nH]c3ccccc23)NC(=O)[C@H](CC(N)=O)NC(C)=O)CSCc2cccc(n2)CSC[C@@H](C(N)=O)NC1=O
B6: Ac-Asp-Trp-5Clw-Tap(AGLU-Glutar)-Glu-leu-[Cys(2Lut)-Thp-Leu-Ile-Cys]-NH2 (peptide)
peptide: Ac-DW[Trp(5-Cl)][Pro(trans-4-NH2)]E[dL]C[Thp]LIC-NH2
modifications: linker 7-11 via Pyridine(2,6-diCH2); not fully specified (residue 4); printed as Ac-Asp-Trp-5Clw-Tap(AGLU-Glutar)-Glu-leu-[Cys(2Lut)-Thp-Leu-Ile-Cys]-NH2
B7: AGLU-Glutar-Asp-Trp-5Brw-Tap-Glu-leu-[Cys(2Lut)-Apc(DOTA)-Leu-Ile-Cys]-APAc-glu(AGLU)-NH2 (peptide)
peptide: DWXXEXCXLIC
modifications: N-term AGLU-Glutar; 5Brw; Tap; leu (D-Leu); thioether cycle [Cys(2Lut)..Cys]; Apc(DOTA); C-term APAc-glu(AGLU)-NH2

target: human Gastric Inhibitory Peptide Receptor (human) (UniProt P48546); experiment: FACS competition with GIP-057 on CHO-K1-hGIPR cells; pIC50 category A: >8.0
Sequence (P48546 22-466 limits assumed): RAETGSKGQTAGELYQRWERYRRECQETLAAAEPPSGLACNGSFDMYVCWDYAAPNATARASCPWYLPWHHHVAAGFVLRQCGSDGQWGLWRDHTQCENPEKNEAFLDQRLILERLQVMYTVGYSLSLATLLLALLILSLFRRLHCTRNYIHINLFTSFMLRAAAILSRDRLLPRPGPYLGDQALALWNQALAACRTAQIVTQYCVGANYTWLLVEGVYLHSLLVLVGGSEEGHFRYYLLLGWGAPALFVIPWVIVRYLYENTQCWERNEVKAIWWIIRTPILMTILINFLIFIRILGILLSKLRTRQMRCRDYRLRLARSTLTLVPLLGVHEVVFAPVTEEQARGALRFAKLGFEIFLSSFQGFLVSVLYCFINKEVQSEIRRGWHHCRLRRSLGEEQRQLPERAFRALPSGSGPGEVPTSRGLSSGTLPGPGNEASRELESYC

pIC50, > 8 pic50:
Ac-DW[Trp(5-Cl)][Nleu′]E[dL]C[Thp]LIC-NH2 (linker 7-11 via Pyridine(2,6-diCH2)) [Ac-Asp-Trp-5Clw-Nleu-Glu-leu-[Cys(2Lut)-Thp-Leu-Ile-Cys]-NH2], {LuDOTA-Ttds}-DW[Trp(5-Cl)]PE[dL]C[Aib]LI[Cysteamide] (linker 7-11 via Pyridine(2,6-diCH2)) [LuDOTA-Ttds-Asp-Trp-5Clw-Pro-Glu-leu-[Cys(2Lut)-Aib-Leu-Ile-AET]], Ac-DW[Trp(5-Cl)][Hyp]E[dL]C[Thp]LIC-OH (linker 7-11 via Pyridine(2,6-diCH2)) [Ac-Asp-Trp-5Clw-Hyp-Glu-leu-[Cys(2Lut)-Thp-Leu-Ile-Cys]-OH], Ac-DW[Trp(5-Cl)][Sar]E[dL]C[Thp]LIC-NH2 (linker 7-11 via Pyridine(2,6-diCH2)) [Ac-Asp-Trp-5Clw-Nmg-Glu-leu-[Cys(2Lut)-Thp-Leu-Ile-Cys]-NH2], Ac-DW[Trp(5-Cl)][Nphe′]E[dL]C[Thp]LIC-NH2 (linker 7-11 via Pyridine(2,6-diCH2)) [Ac-Asp-Trp-5Clw-Nphe-Glu-leu-[Cys(2Lut)-Thp-Leu-Ile-Cys]-NH2], Ac-DW[Trp(5-Cl)][Hyp]E[dL]C[Thp]LIC-NH2 (linker 7-11 via Pyridine(2,6-diCH2)) [Ac-Asp-Trp-5Clw-Hyp-Glu-leu-[Cys(2Lut)-Thp-Leu-Ile-Cys]-NH2], {LuDOTA-Ttds}-DW[Trp(5-Cl)][Sar]E[dL]C[Aib]LI[Cysteamide] (linker 7-11 via mXylylene) [LuDOTA-Ttds-Asp-Trp-5Clw-Nmg-Glu-leu-[Cys(3MeBn)-Aib-Leu-Ile-AET]], Suc-W[Trp(5-Cl)][Hyp]E[dL]C[Thp]LIC-{APAc-Lys(LuDOTA)-NH2} (linker 6-10 via 2Lut; also: Lu complex of DOTA) [HO-Succinyl-Trp-5Clw-Hyp-Glu-leu-[Cys(2Lut)-Thp-Leu-Ile-Cys]-APAc-Lys(LuDOTA)-NH2], Ac-DW[Trp(5-Cl)][N(CH2CH2CO)Gly]E[dL]C[Thp]LIC-NH2 (linker 7-11 via Pyridine(2,6-diCH2)) [Ac-Asp-Trp-5Clw-Nglu-Glu-leu-[Cys(2Lut)-Thp-Leu-Ile-Cys]-NH2], B1, Ac-DW[Trp(5-Cl)][Nlys]E[dL]C[Thp]LIC-NH2 (linker 7-11 via Pyridine(2,6-diCH2)) [Ac-Asp-Trp-5Clw-Nlys-Glu-leu-[Cys(2Lut)-Thp-Leu-Ile-Cys]-NH2], B2, B3, Ac-DW[Trp(5-Cl)][Hyp]E[dL][hCys][Thp]LIC-NH2 (linker 7-11 via Pyridine(2,6-diCH2)) [Ac-Asp-Trp-5Clw-Hyp-Glu-leu-[Hcy(2Lut)-Thp-Leu-Ile-Cys]-NH2], Ac-DW[Trp(5-Cl)][Hyp]D[dL]C[Thp]LIC-NH2 (linker 7-11 via Pyridine(2,6-diCH2)) [Ac-Asp-Trp-5Clw-Hyp-Asp-leu-[Cys(2Lut)-Thp-Leu-Ile-Cys]-NH2], {AGLU-Glutaryl-APAc}-DW[Trp(5-Br)][Pro(trans-4-NH2)]E[dL]C[Api](DOTA)LIC-{APAc-dE(AGLU)-NH2} (linker 7-11 via Pyridine(2,6-diCH2)) [AGLU-Glutar-APAc-Asp-Trp-5Brw-Tap-Glu-leu-[Cys(2Lut)-Apc(DOTA)-Leu-Ile-Cys]-APAc-glu(AGLU)-NH2], {DOTA-dE(AGLU)}-DW[Trp(5-Cl)][Pro(trans-4-NH2)]E[dL]C[Thp]LIC-{APAc-dE(AGLU)-NH2} (linker 7-11 via Pyridine(2,6-diCH2)) [DOTA-glu(AGLU)-Asp-Trp-5Clw-Tap-Glu-leu-[Cys(2Lut)-Thp-Leu-Ile-Cys]-APAc-glu(AGLU)-NH2], B4, {LuDOTA-APAc″}-DW[Trp(5-Cl)]PE[dL]C[Aib]LI[Cysteamide] (linker 7-11 via mXylylene) [LuDOTA-APAc-Asp-Trp-5Clw-Pro-Glu-leu-[Cys(3MeBn)-Aib-Leu-Ile-AET]], Ac-DW[Trp(5-Cl)][Hyp]E[dL]C[Thp]LI[Cysol]-OH (linker 7-11 via Pyridine(2,6-diCH2)) [Ac-Asp-Trp-5Clw-Hyp-Glu-leu-[Cys(2Lut)-Thp-Leu-Ile-Cysol]-OH], B5, Ac-DW[Trp(5-Cl)][N(CH2CH2CO)Gly](NH(1-deoxy-D-glucityl))E[dL]C[Thp]LIC-NH2 (linker 7-11 via Pyridine(2,6-diCH2)) [Ac-Asp-Trp-5Clw-Nglu(AGLU)-Glu-leu-[Cys(2Lut)-Thp-Leu-Ile-Cys]-NH2], Ac-DW[Trp(5-Cl)][Hyp]E[dL]C[Thp]LIC-{APAc-(dE)(AGLU)-NH2} (linker 7-11 via Pyridine(2,6-diCH2)) [Ac-Asp-Trp-5Clw-Hyp-Glu-leu-[Cys(2Lut)-Thp-Leu-Ile-Cys]-APAc-glu(AGLU)-NH2], {AGLU-Glutaryl}-DW[Trp(5-Cl)][Hyp]E[dL]C[Thp]LIC-NH2 (linker 7-11 via Pyridine(2,6-diCH2)) [AGLU-Glutar-Asp-Trp-5Clw-Hyp-Glu-leu-[Cys(2Lut)-Thp-Leu-Ile-Cys]-NH2], Suc-W[Trp(5-Cl)][Hyp]E[dL]C[Api](DOTA(Lu))LI[Cysteamide] (linker 6-10 via 2Lut; also: Lu complex of DOTA) [HO-Succinyl-Trp-5Clw-Hyp-Glu-leu-[Cys(2Lut)-Apc(LuDOTA)-Leu-Ile-AET]], Ac-DW[Trp(5-Cl)][Hyp]Q[dL]C[Thp]LIC-NH2 (linker 7-11 via Pyridine(2,6-diCH2)) [Ac-Asp-Trp-5Clw-Hyp-Gln-leu-[Cys(2Lut)-Thp-Leu-Ile-Cys]-NH2], {AGLU-Glutaryl}-DW[Trp(5-Cl)][Hyp]E[dL]C[Thp]LIC-{APAc-dE(AGLU)-NH2} (linker 7-11 via Pyridine(2,6-diCH2)) [AGLU-Glutar-Asp-Trp-5Clw-Hyp-Glu-leu-[Cys(2Lut)-Thp-Leu-Ile-Cys]-APAc-glu(AGLU)-NH2], Ac-DW[Trp(5-Cl)][Pro(trans-4-F)]E[dL]C[Thp]LIC-NH2 (linker 7-11 via Pyridine(2,6-diCH2)) [Ac-Asp-Trp-5Clw-4Tfp-Glu-leu-[Cys(2Lut)-Thp-Leu-Ile-Cys]-NH2], {LuDOTA-APAc″}-DW[Trp(5-Cl)][Hyp]E[dL]C[Thp]LI[Cysteamide] (linker 7-11 via Pyridine(2,6-diCH2)) [LuDOTA-APAc-Asp-Trp-5Clw-Hyp-Glu-leu-[Cys(2Lut)-Thp-Leu-Ile-AET]], B6, B7, {AGLU-Glutaryl}-[hSer]W[Trp(5-Br)][Pro(trans-4-NH2)]E[dL]C[Api](DOTA)LIC-{APAc-dE(AGLU)-NH2} (linker 7-11 via Pyridine(2,6-diCH2)) [AGLU-Glutar-Hse-Trp-5Brw-Tap-Glu-leu-[Cys(2Lut)-Apc(DOTA)-Leu-Ile-Cys]-APAc-glu(AGLU)-NH2], Suc-W[Trp(5-Cl)][Hyp]E[dL]C[Thp]LIC-{APAc-Lys(InDOTA)-NH2} (linker 6-10 via 2Lut; also: In complex of DOTA) [HO-Succinyl-Trp-5Clw-Hyp-Glu-leu-[Cys(2Lut)-Thp-Leu-Ile-Cys]-APAc-Lys(InDOTA)-NH2]
